Test results from patent US20240374603A1, “PHARMACEUTICAL PREPARATION, PREPARATION METHOD THEREFOR AND USE THEREOF” (COHERENT BIOPHARMA (SUZHOU) LIMITED, priority 2021, published 2024).
*1 amine or outer side, *2 acyl side, *3 side chain or, on linkers, in order; H or OH if unused. Where a SMILES comes first, the peptide text is derived from it. Bridges are numbered along the chain shown (N, C = ends). Roman numbers before positions name the chains, in order. [ ]: non-standard residue; d: D form. The star is where a group is joined. ξ: configuration not given here. Hexanoyl(6-succinimido-3yl) = O=C1CC([*:1])C(=O)N1CCCCCC(=O)[*:2]; Pteroyl = Nc1nc2ncc(CNc3ccc(C(=O)*)cc3)nc2c(=O)[nH]1; Dolaproine(all-ξ) = COC(C(C)C(=O)[*:2])C1CCCN1[*:1]; X1 = CCC(C)C(C(CC(=O)[*:2])OC)N(C)[*:1]; γGlu = O=C(O)[CH](CCC(=O)[*:2])N[*:1]; PABC = O=C(OCc1ccc(N[*:1])cc1)[*:2]; Cit = NC(=O)NCCC[CH](N)C(=O)O; NMeV = CN[CH](C(=O)O)C(C)C; X2 = CC(N*)C(O)c1ccccc1

Assays:
[1] = pH confirmation in freeze-dried form, stability at 30° C. for 1 month; type: physicochemical; conditions: pH range of 6.9 to 7.7, 30° C. for 1 month
Method: An aqueous solution containing LDC10B (5 mg/mL), mannitol (40 mg/mL), sucrose (10 mg/mL) and tromethamine (0.765 mg/mL) was prepared, and the pH was adjusted to 6.9, 7.3 and 7.7 with dilute hydrochloric acid, respectively; the resulting solutions were filtered and sub-packaged into vials, half of a stopper was pressed into the vial, freeze-drying was performed, and the vials were capped. The stability of each sample was investigated at 30° C. for 1 month.

[2] = Final prescription and process confirmation, stability at 25° C. and 40° C.; type: physicochemical; conditions: final prescription (Example 7); for % Moisture / % Total impurity / Re-dissolution time s: freeze-dried; for pH value: re-dissolution pH
Method: In view of the results of the prescription screening experiment, the prescription process confirmation experiment was carried out to investigate the stability of the final prescription.

In the case of `CCC(C)C(C(CC(=O)N1CCCC1C(OC)C(C)C(=O)NC(C)C(O)c1ccccc1)OC)N(C)C(=O)C(NC(=O)C(C(C)C)N(C)C(=O)OCc1ccc(NC(=O)C(CCCNC(N)=O)NC(=O)C(NC(=O)CCCCCN2C(=O)CC(SCC(NC(=O)CCC(NC(=O)c3ccc(NCc4cnc5[nH]c(N)nc(=O)c5n4)cc3)C(=O)O)C(=O)NC(CCCCN)C(=O)NC(CCC(=O)O)C(=O)NC(Cc3ccccc3)C(=O)NC(CC(C)C)C(=O)NC(Cc3cnc[nH]3)C(=O)N3CCCC3C(=O)NC(CO)C(=O)NC(CCCCN)C(=O)NC(C(=O)NC(CC(=O)O)C(=O)NC(CC(C)C)C(=O)N3CCCC3C(=O)NC(CCCNC(=N)N)C(=O)O)C(C)C)C2=O)C(C)C)cc1)C(C)C` (stereo not shown) [LDC10B] (I: {Pteroyl-γGlu}-CKEFLHPSKVDLPR-OH / II: V[Cit][PABC][NMeV]V[X1][Dolaproine(all-ξ)]-X2; linker I:1-II:N via Hexanoyl(6-succinimido-3yl); configuration not given here), the “quality of the freeze-dried preparation” value [1] is reported as “stable”, the “% Moisture” value ([2]; 25° C., 0 day) is reported as 0.42% and the “% Total impurity” value ([2]; 25° C., 0 day) is reported as 0.44%. The Re-dissolution time s ([2]; 25° C., 0 day) was 160 s, the “% Moisture” value ([2]; 25° C., 1 month) was 1.79% and the “% Total impurity” value ([2]; 25° C., 1 month) was 0.51%. For the same compound, the Re-dissolution time s ([2]; 25° C., 1 month) was 154 s, the “% Moisture” value ([2]; 25° C., 2 months) was 1.97% and the “% Total impurity” value ([2]; 25° C., 2 months) was 0.61%. For the same compound, the Re-dissolution time s ([2]; 25° C., 2 months) was 114 s, the “% Moisture” value ([2]; 25° C., 3 months) was 2.19% and the “% Total impurity” value ([2]; 25° C., 3 months) was 0.81%. For the same compound, the Re-dissolution time s ([2]; 25° C., 3 months) was 174 s, the “% Moisture” value ([2]; 25° C., 6 months) was 2.62% and the “% Total impurity” value ([2]; 25° C., 6 months) was 1.21%. For the same compound, the Re-dissolution time s ([2]; 25° C., 6 months) was 128 s, the “% Moisture” value ([2]; 40° C., 0 day) was 1.2% and the “% Total impurity” value ([2]; 40° C., 0 day) was 0.33%. For the same compound, the Re-dissolution time s ([2]; 40° C., 0 day) was 148 s, the “% Moisture” value ([2]; 40° C., 5 day) was 1.0% and the “% Total impurity” value ([2]; 40° C., 5 day) was 0.48%. For the same compound, the Re-dissolution time s ([2]; 40° C., 5 day) was 139 s, the “% Moisture” value ([2]; 40° C., 10 day) was 1.2% and the “% Total impurity” value ([2]; 40° C., 10 day) was 0.54%. The Re-dissolution time s ([2]; 40° C., 10 day) was 118 s, the “% Moisture” value ([2]; 40° C., 30 day) was 1.8% and the “% Total impurity” value ([2]; 40° C., 30 day) was 0.69%. The Re-dissolution time s ([2]; 40° C., 30 day) was 135 s, the pH value ([2]; 25° C., 0 day) was 7.4 and the pH value ([2]; 25° C., 1 month) was 7.5. The pH value ([2]; 25° C., 2 months) was 7.2, the pH value ([2]; 25° C., 3 months) was 7.4 and the pH value ([2]; 25° C., 6 months) was 7.3. It also gave a pH value ([2]; 40° C., 0 day) of 7.4, a pH value ([2]; 40° C., 5 day) of 7.1 and a pH value ([2]; 40° C., 10 day) of 7.3. It also gave a pH value ([2]; 40° C., 30 day) of 7.4.
